Reference: the RNAGym collection of RNA variant scans (doi:10.1093/nar/gkz1192)

B1: CPEB3 Ribozyme (parent)
chain: UAACAGGGGGCCACAGCAGAAGCGUUCACGUCGCAGCCCCUGUCAGAUUCUGGUGAAUCUGCGAAUUCUGCUGUAUAUCUC

Variants of: B1
Test: self-cleavage, relative activity (ratio to wild type); higher = more cleavage; in vitro, sequencing
Method in brief: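 For each CPEB3 ribozyme variant, relative activity is its cleaved/total read fraction divided by the unmutated ribozyme's. Barcoded error-prone PCR libraries were transcribed by T7 RNA polymerase (5 hours, 37°C) and held in DNase I for 15 min before an EDTA stop, with cleavage occurring throughout. Template-switching reverse transcription and Illumina sequencing were used to read the RNAs. A 5-read minimum applied, and results are the mean of three batches.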

Compared with G10U U25C, G9U U26C is lower in self-cleavage: 0.21 for the first, 0.19 for the second.

Going from G9U U26G to C11A C62U, the self-cleavage falls from 0.09 to 0.

Going from G9U U48C to G10C G33A, the self-cleavage falls from 0.29 to 0.16.

Compared with G10C U72A, G10C U69A is higher in self-cleavage: 0.14 for the first, 0.3 for the second.

First: G10C U69G
Second: G10C U69C
The self-cleavage of the first is higher: 0.16 for the first, 0.12 for the second.

Going from C11A A21G to G9U G19U, the self-cleavage falls from 0.24 to 0.07.

Compared with G10C U60A, C11A G33A is lower in self-cleavage: 0.12 for the first, 0.07 for the second.

Going from G10C A75G to C11A C81U, the self-cleavage rises from 0.24 to 0.52.

Going from C11A C81G to G10C U49A, the self-cleavage falls from 0.39 to 0.2.

Going from G10C U49G to G10C U49C, the self-cleavage rises from 0.17 to 0.22.

Going from G10U U60C to G10U U60G, the self-cleavage falls from 0.38 to 0.31.

First: G10A U26A
Second: G10A U26C
The self-cleavage of the first is lower: 0.07 for the first, 0.22 for the second.

First: G10A U26G
Second: C11A A15G
The self-cleavage of the first is lower: 0.05 for the first, 0.21 for the second.

First: C11A A15U
Second: G10A G55A
The self-cleavage of the first is higher: 0.37 for the first, 0.36 for the second.

First: G10A G55U
Second: C11A C17U
The self-cleavage of the first is lower: 0.07 for the first, 0.09 for the second.

Going from G10C A21G to G10A C34U, the self-cleavage falls from 0.18 to 0.05.

Going from G10A U66C to G10U U58C, the self-cleavage rises from 0.2 to 0.34.

First: G10A C59A
Second: C11A A20G
The self-cleavage of the first is lower: 0.06 for the first, 0.21 for the second.

First: G10A A13C
Second: G10A A13G
The self-cleavage of the first is higher: 0.28 for the first, 0.26 for the second.

First: G10A A13U
Second: G10A A28G
The self-cleavage of the first is higher: 0.28 for the first, 0.21 for the second.

Going from G10A A28U to G10A A28C, the self-cleavage falls from 0.17 to 0.1.

G10A U67C and G10C are the same in self-cleavage: 0.25 for the first, 0.25 for the second.

First: G10A
Second: G10U
The self-cleavage of the first is higher: 0.26 for the first, 0.23 for the second.

Going from G10A G61C to G10U U26C, the self-cleavage rises from 0.09 to 0.28.

First: G10U U26A
Second: G10U U49G
The self-cleavage of the first is higher: 0.32 for the first, 0.14 for the second.

Going from G10U U49C to G10U U49A, the self-cleavage rises from 0.24 to 0.31.

Compared with G10A G33A, G10A U80G is higher in self-cleavage: 0.19 for the first, 0.25 for the second.

Compared with G10A U80A, G10A U80C is higher in self-cleavage: 0.06 for the first, 0.25 for the second.

First: C11A A45G
Second: G9U U66C
The self-cleavage of the first is higher: 0.41 for the first, 0.15 for the second.

First: G9U U66G
Second: G10A U76C
The self-cleavage of the first is lower: 0.11 for the first, 0.33 for the second.

First: G10A U76A
Second: G10A U58C
The self-cleavage of the first is higher: 0.23 for the first, 0.18 for the second.

First: G10A U58A
Second: G10C C27U
The self-cleavage of the first is higher: 0.24 for the first, 0.15 for the second.

Going from G10C G24U to G10A G36A, the self-cleavage rises from 0.15 to 0.26.

First: G10U A56G
Second: G10U A56U
The self-cleavage of the first is higher: 0.16 for the first, 0.08 for the second.

Going from G10U U54C to G9U G24C, the self-cleavage falls from 0.34 to 0.11.

Compared with G10A G30U, G10U U69A is higher in self-cleavage: 0.17 for the first, 0.18 for the second.

Compared with G10U U69C, G10C U41A is higher in self-cleavage: 0.07 for the first, 0.33 for the second.

Compared with G10C U41C, G9U U72C is higher in self-cleavage: 0.1 for the first, 0.26 for the second.

Compared with G9U U72A, G10C U66A is higher in self-cleavage: 0.09 for the first, 0.2 for the second.

Compared with G10C U66C, C11A G24A is lower in self-cleavage: 0.15 for the first, 0.09 for the second.

First: G10C U54C
Second: G10C U54A
The self-cleavage of the first is higher: 0.39 for the first, 0.26 for the second.

Compared with C11A C68A, G10U G53U is higher in self-cleavage: 0.14 for the first, 0.24 for the second.

First: G10U A65G
Second: G10U U51C
The self-cleavage of the first is lower: 0.19 for the first, 0.4 for the second.

Going from C11A A18C to C11A A18G, the self-cleavage falls from 0.4 to 0.28.

Compared with C11A A18U, G10U A13U is lower in self-cleavage: 0.43 for the first, 0.1 for the second.

First: G10U A13G
Second: G10U U74C
The self-cleavage of the first is lower: 0.11 for the first, 0.46 for the second.

Compared with G10U A77G, G10U A77U is lower in self-cleavage: 0.35 for the first, 0.07 for the second.

Going from C11A U31C to C11A U31A, the self-cleavage rises from 0.23 to 0.3.

Going from G10C U80C to C11A U54C, the self-cleavage falls from 0.31 to 0.17.

Compared with C11A U54G, C11A U54A is higher in self-cleavage: 0.21 for the first, 0.43 for the second.

First: C11A G73C
Second: C11A G73A
The self-cleavage of the first is lower: 0.87 for the first, 1.07 for the second.

Compared with C11A U41C, C11A U41A is lower in self-cleavage: 0.58 for the first, 0.33 for the second.

Going from G9U U80C to G9U U80A, the self-cleavage rises from 0.24 to 0.26.

First: G10A U72G
Second: G10A U72C
The self-cleavage of the first is lower: 0.24 for the first, 0.39 for the second.

Compared with G10A U72A, G9U U54C is lower in self-cleavage: 0.22 for the first, 0.1 for the second.

First: G9U U54A
Second: G10A U49C
The self-cleavage of the first is lower: 0.08 for the first, 0.19 for the second.

Going from G10A U49G to G10A U74G, the self-cleavage falls from 0.18 to 0.14.

G10A U74A and G10A U74C are the same in self-cleavage: 0.25 for the first, 0.25 for the second.

Compared with G10U U43C, G10C U43C is lower in self-cleavage: 0.34 for the first, 0.13 for the second.

First: G10C U43A
Second: G10A C27G
The self-cleavage of the first is higher: 0.38 for the first, 0.16 for the second.

Going from C11A A57G to C11A A35U, the self-cleavage falls from 0.33 to 0.1.

Going from C11A A35G to G10C A65G, the self-cleavage falls from 0.46 to 0.33.

Going from G10C A28C to G10C A28G, the self-cleavage falls from 0.16 to 0.14.

Compared with G10U A45C, G10A U43A is higher in self-cleavage: 0.14 for the first, 0.28 for the second.

Compared with G10A U43C, G10A U43G is higher in self-cleavage: 0.06 for the first, 0.19 for the second.

First: C11A U51C
Second: C11A G46C
The self-cleavage of the first is higher: 0.38 for the first, 0.13 for the second.

Compared with G10A U25A, G10A U25G is lower in self-cleavage: 0.26 for the first, 0.14 for the second.

Compared with G10A U25C, G10A U41G is higher in self-cleavage: 0.23 for the first, 0.38 for the second.

Compared with G10A U41A, G10A U41C is higher in self-cleavage: 0.29 for the first, 0.31 for the second.

Going from C11A A47U to C11A A47G, the self-cleavage rises from 0.27 to 0.51.

First: G10A A77U
Second: G10A A77G
The self-cleavage of the first is lower: 0.04 for the first, 0.08 for the second.

First: G10C G42U
Second: G9U C40U
The self-cleavage of the first is lower: 0.16 for the first, 0.19 for the second.

First: G9U C40A
Second: G10U C62U
The self-cleavage of the first is higher: 0.14 for the first, 0.13 for the second.

First: G10A U69A
Second: G10A U69C
The self-cleavage of the first is lower: 0.11 for the first, 0.2 for the second.

First: G10A U69G
Second: G10A A75G
The self-cleavage of the first is higher: 0.36 for the first, 0.19 for the second.

Compared with G10A A18U, G10A A18G is higher in self-cleavage: 0.15 for the first, 0.23 for the second.

Compared with G10A A18C, G10A A35G is higher in self-cleavage: 0.35 for the first, 0.55 for the second.

Compared with G10A A35U, C11A A64G is higher in self-cleavage: 0.11 for the first, 0.21 for the second.

C11A A64U and G10A U60G are the same in self-cleavage: 0.06 for the first, 0.06 for the second.

Compared with G10A U60A, G10A U60C is higher in self-cleavage: 0.14 for the first, 0.2 for the second.

Compared with G10A C11U, C11A C44A is lower in self-cleavage: 0.5 for the first, 0.13 for the second.

Going from G10A A45G to G10A A45U, the self-cleavage falls from 0.22 to 0.19.

Going from G10C A45G to G10C A45U, the self-cleavage rises from 0.13 to 0.16.

Work on G9U U41A yielded a self-cleavage of 0.15.
